Assay [1] has as its target T1, Human OX40 expressed on the surface of activated human CD4+OX40+ T cells (human, UniProt P43489 29-277).
T1 sequence (looked up): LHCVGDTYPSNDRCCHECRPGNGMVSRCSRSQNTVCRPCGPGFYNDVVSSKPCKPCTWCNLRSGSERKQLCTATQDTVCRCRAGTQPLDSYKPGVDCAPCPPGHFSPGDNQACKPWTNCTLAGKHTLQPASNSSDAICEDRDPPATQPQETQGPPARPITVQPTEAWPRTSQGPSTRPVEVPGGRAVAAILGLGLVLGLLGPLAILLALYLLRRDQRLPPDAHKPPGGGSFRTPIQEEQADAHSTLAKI
The assay can be described thus: cell-based or functional assay.

Assay [2] concerns the target T1, Human OX40 expressed on the surface of …. The assay can be described thus: cell-based or functional assay. This is another data set of the same source.
The target in assay [3] is Cynomolgus OX40 on activated cynomolgus CD4+ T cells (cynomolgus) (UniProt P79185). As to the kind of experiment: flow cytometry saturation binding on activated cynomolgus CD4+ T cells; n = 3.
Assay [4] deals with T2, Rhesus OX40 on activated rhesus CD4+ T cells (rhesus, UniProt P16003 26-458). The assay can be described thus: flow cytometry saturation binding on activated rhesus CD4+ T cells; n = 1.
T2 sequence (P16003 26-458): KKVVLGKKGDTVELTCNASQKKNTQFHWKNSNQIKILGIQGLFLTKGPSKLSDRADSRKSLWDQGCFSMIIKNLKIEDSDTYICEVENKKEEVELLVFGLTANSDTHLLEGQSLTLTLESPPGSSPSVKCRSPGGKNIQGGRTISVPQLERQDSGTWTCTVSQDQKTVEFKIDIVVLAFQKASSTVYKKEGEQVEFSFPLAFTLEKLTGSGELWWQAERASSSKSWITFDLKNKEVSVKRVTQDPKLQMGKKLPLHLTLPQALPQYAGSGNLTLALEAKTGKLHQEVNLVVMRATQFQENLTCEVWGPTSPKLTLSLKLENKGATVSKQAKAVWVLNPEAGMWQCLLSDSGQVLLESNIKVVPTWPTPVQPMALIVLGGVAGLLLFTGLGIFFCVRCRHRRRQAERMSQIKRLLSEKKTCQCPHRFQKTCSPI
Assay [5] addresses T1, Human OX40 expressed on the surface of …. The assay can be described thus: flow cytometry saturation binding on activated human CD4+ T cells; mean, n = 3. How it is done: (§1) PBMC were isolated by separation on a Ficoll gradient and activated with 1 μg/mL PHA-L for 3 days at 37° C., 5% CO₂, 100% humidity. CD4⁺ T cells were isolated by negative selection using magnetic beads (CD4⁺ T cell Isolation Kit II for Human; Miltenyi Biotec). […] The cells were washed prior to analysis by flow cytometry using a FACScalibur (Becton Dickinson). Two titration curves were produced, one with A26Fab′-PEG and a second with gA33 Fab′-PEG as a non-specific binding control. Linear regression analysis was used to subtract non-specific binding and the specific binding curve thus generated was analysed by non-linear regression (Graphpad Prism®) to determine KD.
Background: In flow cytometry, cells or beads pass a laser one at a time.

The target of assay [6] is Cynomolgus OX40 on activated cynomolgus CD4+ T cells (cynomolgus) (UniProt P79185). The assay can be described thus: flow cytometry equilibrium binding on activated CD4+ T cells, against human cells as reference.
Assay [7] addresses T2, Rhesus OX40 on activated rhesus CD4+ T …. The assay is described as above.
Assay [8] deals with T3, Human OX40 extracellular (185 aa) domain fused to the murine IgG2a Fc (232 aa) (Ancell No 513-020) (human; murine, UniProt P43489 29-214).
T3 construct: extracellular domain; Bought reagent; also called recombinant OX40; human extracellular domain OX40; not shown: murine IgG2a Fc, 232 aa
T3 sequence (looked up): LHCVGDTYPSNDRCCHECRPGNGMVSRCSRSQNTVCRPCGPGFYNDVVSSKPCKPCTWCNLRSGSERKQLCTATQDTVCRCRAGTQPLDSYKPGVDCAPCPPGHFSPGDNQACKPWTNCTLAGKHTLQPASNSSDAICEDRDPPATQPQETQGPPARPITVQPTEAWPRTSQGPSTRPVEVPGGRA
As to the kind of experiment: BIAcore 3000 SPR; antibody captured, human OX40-mFc as analyte; average of 4 determinations. How it is done:
(§2) BIA (Biamolecular Interaction Analysis) was performed using a BIAcore 3000 (BIAcore AB). Affinipure F(ab′)₂ Fragment goat anti-human IgG, F(ab′)₂ fragment specific (Jackson ImmunoResearch) was immobilised on a CM5 Sensor Chip via amine coupling chemistry to a capture level of ≈4000 response units (RUs). HBS-EP buffer (10 mM HEPES pH 7.4, 0.15 M NaCl, 3 mM EDTA, 0.005% Surfactant P20, BIAcore AB) was used as the running buffer with a flow rate of 10 μl/min. A 10 μl injection of Fab′ at 0.5 μg/mL or Fab′-PEG at 50 μg/mL was used for capture by the immobilised anti-human IgG-F(ab′)₂. Human OX40 was titrated over the captured antibody at various concentrations (25 nM to 0.78 nM) at a flow rate of 30 μL/min. The surface was regenerated by a 10 μL injection of 40 mM HCl, followed by a 5 μL injection of 5 mM NaOH at a flowrate of 10 μL/min.
(§3) Background subtraction binding curves were analysed using the BlAevaluation software (version 3.2) following standard procedures. Kinetic parameters were determined from the fitting algorithm.

In assay [9] the target is T3, Human OX40 extracellular (185 aa) …. The assay can be described thus: BIAcore 3000 SPR; antibody captured by immobilised anti-human F(ab′)2, human OX40-mFc titrated as analyte. How it is done: as §2, §3
In general terms: In SPR one partner is held on a chip, and binding of the other changes the refractive index at the surface.

For assay [10], the target named is T1, Human OX40 expressed on the surface of …. As to the kind of experiment: flow cytometry saturation binding of FITC labelled antibody on activated human CD4+OX40+ T cells; one of 3 donors. As to the method: Binding of FITC labelled A26Fab′-PEG to activated human CD4⁺OX40⁺ T cells was measured by flow cytometry across a 4-log concentration range.
as §1

Assay [11] shares this target. The assay can be described thus: flow cytometry ligand blocking assay on activated human CD4+OX40+ T cells; competitor biotinylated OX40L (CD252 muCD8) at 2 µg/ml. As to the method:
The capacity of A26Fab′-PEG to block the interaction between cell-surface expressed OX40 and recombinant OX40L was measured using a flow cytometry-based ligand blocking assay. Briefly, activated human CD4⁺OX40⁺ T cells were pre-incubated with a titration of A26Fab′-PEG. Recombinant OX40L was subsequently added to the cells and allowed to bind in the presence of A26 Fab′-PEG. The proportion of OX40L bound was then detected by flow cytometry using a labelled secondary reagent.
Methods: Inhibition of OX40L binding to human activated CD4⁺OX40⁺ T Cells by A26Fab′-PEG. PBMC were isolated by separation on a Ficoll gradient and activated with 1 μg/mL PHA-L for 3 days at 37° C., 5% CO₂, 100% humidity. 2.5×10⁵ cells were incubated in the presence of antibody (final concentration range 20 μg/mL-0.0003 μg/mL (229 nM-0.0035 nM)) for 10 minutes on ice. OX40L (biotinylated CD252 muCD8, Ancell) was added at a final concentration of 2 μg/ml and incubated for a further 30 minutes on ice. Cells were washed and OX40L binding detected by incubation with PE-labelled streptavadin (Jackson Immunoresearch) prior to analysis by flow cytometry using a FACScalibur (Becton Dickinson). gA33 Fab′-PEG was used as a non-specific control. The inhibition curve was analysed by non-linear regression (Graphpad Prism®) to determine the IC₅₀. The data shown is from one representative donor of two.

In assay [12] the target is T3, Human OX40 extracellular (185 aa) …. As to the kind of experiment: BIAcore 3000 SPR; antibody captured, human OX40-mFc as analyte; average of 5 determinations. How it is done: as §2, §3

This is an account of results in patent publication US20100254978A1 (UCB, published 2010).

“And” between values parts separate entries of the source, which are not always exact repeats. Equal entries are not always repeated.

B1: A26Fab′-PEG (PEGylated A26 Fab′ fragment) (Fab, V domains shown)
VH: EVQLVESGGGLVQPGGSLRLSCAASGFTFTNYGIHWIRQAPGKGLEWVASISPSGGLTYYRDSVKGRFTISRDDAKNSPYLQMNSLRAEDTAVYYCATGGEGIFDYWGQGTLVTVSS
VL: DIQMTQSPSSLSASVGDRVTITCRATQSIYNALAWYQQKPGKAPKLLIYNANTLHTGVPSRFSASGSGTDSTLTISSLQPEDFATYYCQQYYDYPLTFGGGTKVEIKR
modifications: Cys 226 (linear numbering of SEQ ID NO:15): lysyl-maleimide group, each amino group of the lysyl residue linked to a methoxypoly(ethyleneglycol) of about 20,000 Da (total PEG about 40,000 Da)
notes: also called A26Fab′-PEGylated
On to B1, for which, in assay [1], the “IC50 for inhibition of proliferation, Tetanus Toxoid response, donor 1” value is 0.58 nM and 0.051 µg/mL; the “IC50 for inhibition of proliferation, Tetanus Toxoid response, donor 2” value was 1.11 nM and 0.097 µg/mL. In addition, in [2], the “House Dust Mite - Inhibition of IL-13 production (n = 3), Mean IC50 (nM)” value came out at 1.23 nM; the “House Dust Mite - Inhibition of IL-13 production (n = 3), Mean IC50 (µg/ml)” value was 0.107 µg/mL; the “Mixed Lymphocyte Reaction - Inhibition of Proliferation (n = 10), Mean IC50 (nM)” value is 2.15 nM; the “Mixed Lymphocyte Reaction - Inhibition of Proliferation (n = 10), Mean IC50 (µg/ml)” value was 0.188 µg/mL. Further, in assay [2], the “Tetanus Toxoid - Inhibition of Proliferation (n = 2), Mean IC50 (nM)” value came to 0.845 nM and the “Tetanus Toxoid - Inhibition of Proliferation (n = 2), Mean IC50 (µg/ml)” value turned out to be 0.0733 µg/mL. Also, in assay [3], the Kd (as a rule, the constant that tells how readily two partners part at equilibrium) is 1.86 nM. The molecule also came in with a dissociation constant (Kd) in assay [4] of 1.2 nM. The dissociation constant (Kd) in assay [5] was determined as 1.11 nM. Also, in assay [6], the fold drop off in affinity as compared to human was less than 2 fold. Besides, in [7], the “fold drop off in affinity as compared to human” value is less than 2 fold. In addition, in [8], binding was characterised by a dissociation constant (Kd) of 0.0313 nM; the off-rate (koff) (commonly the first-order rate constant of dissociation) was determined as 1.3e-05 s⁻¹; the kon – broadly, a measure of how fast the partners come together – came out at 476000 M⁻¹ s⁻¹. Moreover, in assay [9], the dissociation constant (Kd) is 0.0137 to 0.0503 nM. In addition, the Kd in assay [10] was 1.19 nM and 1.07 nM and 1.05 nM. Moreover, the IC50 – broadly, the concentration that inhibits the measured activity by half – in assay [11] came out at 4.1 nM.

B2: A26 (humanised CA044-00026, graft gL8gH2) Fab′ fragment, unPEGylated (Fab, V domains shown)
VH: EVQLVESGGGLVQPGGSLRLSCAASGFTFTNYGIHWIRQAPGKGLEWVASISPSGGLTYYRDSVKGRFTISRDDAKNSPYLQMNSLRAEDTAVYYCATGGEGIFDYWGQGTLVTVSS
VL: DIQMTQSPSSLSASVGDRVTITCRATQSIYNALAWYQQKPGKAPKLLIYNANTLHTGVPSRFSASGSGTDSTLTISSLQPEDFATYYCQQYYDYPLTFGGGTKVEIKR
notes: Produced in E. coli; the OmpA signal peptide is cleaved off; also called unPEGylated humanised Fab fragment A26
In assay [12], B2 came in with an equilibrium dissociation constant (Kd) of 0.0296 nM, a koff of 1.29e-05 s⁻¹ and a kon of 486000 M⁻¹ s⁻¹. The Kd in assay [9] fell in the range of 0.019 to 0.0454 nM.
